This is an account of results in publication PMC5435865, “A biochemical framework for eIF4E-dependent mRNA export and nuclear recycling of the export machinery” (RNA, 2017).

For the experiment, the target named is T1, ^15N-labeled human eIF4E (human, UniProt P06730 1-217).
T1 construct: human eukaryotic translation initiation factor eIF4E, in pET-15b; Uniformly ^15N-labeled; also called cap-free eIF4E; source: overexpressed and purified as described in Volpon et al. (2016)
Description: NMR titration; ^1H–^15N HSQC of ~40 µM ^15N-labeled cap-free eIF4E, unlabeled LRP10A added to ratio 1:4; 20°C, 50 mM sodium phosphate pH 7.3, 100 mM NaCl, 1 mM DTT, 7% D2O. The following applies: both partners purified.

T1 sequence (P06730 whole entry): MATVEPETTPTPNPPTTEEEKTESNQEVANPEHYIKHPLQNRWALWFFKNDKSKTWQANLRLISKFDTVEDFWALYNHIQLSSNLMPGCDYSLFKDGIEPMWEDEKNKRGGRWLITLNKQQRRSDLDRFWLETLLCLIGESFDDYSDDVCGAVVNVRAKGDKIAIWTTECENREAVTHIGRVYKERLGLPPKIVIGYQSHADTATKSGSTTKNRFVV

B1: synthetic peptide LRP10A (N-Ac-EGFPIRPHYFWPLLVGRRKEK-NH2) (peptide)
peptide: Ac-EGFPIRPHYFWPLLVGRRKEK-NH2
notes: human LRPPRC, residues 433-453 (helix 10A); source: synthetic peptide, bought: Biomatic Corporation
B1: the binding result is on record as “binds”.
